Data on 19 molecules can be found in patent US20250144213A1 (UTC THERAPEUTICS SHANGHAI, published 2025).

This experiment addresses T1, CD123-Fc recombinant protein (human, UniProt P26951 19-305).
T1 construct: Soluble staining reagent; also called CD123-Fc protein; not shown: Fc part
T1 sequence (looked up): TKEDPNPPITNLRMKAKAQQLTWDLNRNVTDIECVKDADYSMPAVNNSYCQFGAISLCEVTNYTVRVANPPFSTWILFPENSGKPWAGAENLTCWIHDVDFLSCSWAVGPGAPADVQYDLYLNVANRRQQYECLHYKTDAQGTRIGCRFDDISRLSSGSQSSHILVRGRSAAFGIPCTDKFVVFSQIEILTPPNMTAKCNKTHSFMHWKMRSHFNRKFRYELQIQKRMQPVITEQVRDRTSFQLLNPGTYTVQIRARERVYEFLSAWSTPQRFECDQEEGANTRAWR
Briefly: FACS staining of CAR-T cells with CD123-Fc recombinant protein (FIG. 28).

Where a chain is given by its changes, count along the chain named.

B1: anti-CD123 scFv-C24 (scFv)
scFv: DIQMTQSPSSLSASVGDRVTITCRASQSISSYLNWYQQKPGKAPKLLIHAASSLQSGVPSKFSGSGSGTDFTLTISSLQPEDFATYYCLQYKTYPYTFGPGTKVEIKGGGGSGGGGSGGGGSQVQLVQSGAEVKKPGSSVKVSCKASGGTFSSYAISWVRQAPGQGLEWMGGIIPIFGTANYAQKFQGRVTITADESTSTAYMELSSLRSEDTAVYYCARDSPSGSTNYYYYYMDVWGKGTTVTVSS
notes: also called C24 scFv
On to B1, for which the binding result is recorded as “binds”.

B2: anti-CD123 scFv-C4 (scFv)
scFv: QSALTQPPSASGTPGQRVTISCSGSSSNIGSNYVNWYQQLPGTAPKLLIYRNNQRPSGVPDRFSGSKSGTSASLAISGLRSEDEADYYCAAWDDSLSGHGVFGTGTELTVLGGGGSGGGGSGGGGSQVQLVQSGPEVKKPGASVKVSCKASGYDFIRYYMNWVRQAPGQGPEWMGAIDPSDGDTTYGQKFQGRVTLTRDTFTSTVYMELSSLRSEDTAVYYCARDWELTNSYGLDVWGQGTTVTVSS
notes: also called C4 scFv
On to B2, for which the binding result is given as “binds”.

B3: anti-CD123 scFv-C2 (scFv)
scFv: QSVVTQPPSVSAAPGQKVTISCSGSSSNIGNNYVSWYQQFPGTAPKLLIYDNNKRPSGIPDRFSGSKSGTSGTLGITGLQTGDEADYYCVTWDTSLSAGVFGGGTKLTVLGGGGSGGGGSGGGGSQITLKESGGGLVKPGGSLRLSCAASGFTFSNAWMSWVRQAPGKGLEWVGRIKSKTDGGTTDYAAPVKGRFTISRDDSKNTLYLQMNSLKTEDTAVYYCTTDPHGYYYGMDVWGQGTTVTVSS
notes: also called C2 scFv
Regarding B3, the binding result is on record as “binds”.

B4: anti-CD123 scFv-C16 (scFv)
scFv: QSVVTQPPSASGTPGQRVTISCSGSSSNIEGNTVSWYQQFPGAAPKLLIYSNSYRASGVPDRFSGSKSGTSASLAISELQSEDEADYYCSAWDDSLNGPVFGGGTELTVLGGGGSGGGGSGGGGSQVQLQESGGGLVQPGGSLRLSCAASGFTFSSYSMNWVRQAPGKGLEWVSYISSSSSTIYYADSVKGRFTISRDNAKNSLYLQMNSLRAEDTAVYYCARDIYGDWDYYYYGMDVWGQGTTVTVSS
notes: also called C16 scFv
Regarding B4, the binding result is recorded as “binds”.

B5: anti-CD123 scFv-C19 (scFv)
scFv: DIRMTQSPSSLSASVGDRVTITCRASQDIRHDLGWYQQKPGKAPSLLMYATSTLQSGVPSRFSGSGSGTHFTLTISSLKPEDSATYYCLQDGDYPLTFGGGTKLEIKGGGGSGGGGSGGGGSQVQLVQSGGGVVQPGRSLRLSCAASGFTFSSYGMHWVRQAPGKGLEWVAVISYDGSNKYYADSVKGRFTISRDNSKNTLYLQMNSLRAEDTAVYYCAKDPSLIQYYYYGMDVWGQGTMVTVSS
notes: also called C19 scFv
B5: the binding result is listed as “binds”.

B6: anti-CD123 scFv-C10 (scFv)
scFv: SYELTQPPSVSVAPGKTARITCGGNNIGSKSVHWYQQKPGQAPVLVVYDDSDRPSGIPERFSGSNSGNTATLTISRVEAGDEADYYCQVWDSSSDHWVFGGGTKLTVLGGGGSGGGGSGGGGSQVQLVQSGAEVKKPGSSVKVSCKASGGTFSSYAISWVRQAPGQGLEWMGGIIPIFGTANYAQKFQGRVTITADESTSTAYMELSSLRSEDTAVYYCAREKWGYYGDYYYGMDVWGQGTTVTVSS
notes: also called C10 scFv
For B6, the binding result was “binds”.

B7: anti-CD123 scFv-C23 (scFv)
scFv: DILMTQSPSSLSASVGDRVTITCQASQDISNYLNWYQQKPGKAPKLLIYDASNLETGVPSRFSGSGSGTGFSFTISSLQPEDFATYYCQQYGNLPLTFGGGTKLEIKGGGGSGGGGSGGGGSQVQLVQSGAEVKKPGASVKVSCKASGYTFTSYGISWVRQAPGQGLEWMGWISAYNGNTNYAQKLQGRVTMTTDTSTSTAYMELRSLRSDDTAVYYCARDRIAAAEVYYYYGMDVWGQGTTVTVSS
notes: also called C23 scFv
Consider B7, for which the binding result is “binds”.

B8: anti-CD123 scFv-C3 (scFv)
scFv: AIQMTQSPSSLSASVGDRVTITCRASQGIGTYLAWFQQKPGKAPKSLIYAASNLQSGVPSKFSGSGSGTDFTLTISNLQPEDFATYYCQQYKGYPLTFGGGTKLEIKGGGGSGGGGSGGGGSQVQLVQSGAEVKKPGSSVKVSCKASGGTFSSYAISWVRQAPGQGLEWMGGIIPIFGTANYAQKFQGRVTITADESTSTAYMELSSLRSEDTAVYYCARDSGWFGPRYYFDYWGQGTLVTVSS
notes: also called C3 scFv
In the case of B8, the binding result is on record as “binds”.

B9: anti-CD123 scFv-C15 (scFv)
scFv: DIQLTQSPSTLSASVGDRVTISCRASQSISSWLAWYQHKPGKAPKLLIYKTSALEDGVPSRFSGSGSGTEFTLTISSLQPDDFATYFCLHYGSYTFGQGTKVDIKGGGGSGGGGSGGGGSEVQLVESGGGLVNPGGSLRLSCEASGFTFSDYYISWIRQAPGKGLEWISYISGSSTYTDFADSVKGRFTISRDNAKNTVFLQMNSLRAEDTAVYYCARDRRGRFDPWGQGTLVTVSS
notes: also called C15 scFv
As for B9, the binding result is on record as “binds”.

B10: anti-CD123 scFv-C11 (scFv)
scFv: QSVVTQPPSASGTPGQRVTISCSGSSSNIGSNYVYWYQQLPGTAPKLLIYRNNQRPSGVPDRFSGSKSGTSASLAISGLRSEDEADYYCAAWDDSLSGYVFGTGTKLTVLGGGGSGGGGSGGGGSEVQLVESGGGLVQPGRSLRLSCTASGFTFGDYAMSWVRQAPGKGLEWVGFIRSKAYGGTTEYAASVKGRFTISRDDSKSIAYLQMNSLKTEDTAVYYCTRDIGYYGSGSYSPFDYWGQGTLVTVSS
notes: also called C11 scFv; C11 CAR
B10: the binding result is reported as “binds”.

B11: anti-CD123 scFv-C29 (scFv)
scFv: B10 scFv with S2P, V4L, L107V, Q128H
notes: also called C29 scFv
As for B11, the binding result is “binds”.

B12: anti-CD123 scFv-C5 (scFv)
scFv: NFMLTQPHSVSESPGKTVTLSCTRSSGSIAGSYVQWYQQRPGSSPTTVIFQDNQRPSGVPDRFSGSIDKSSNSASLTISGLKTEDEADYYCQSYDSNNQVFGGGTKLTVLGGGGSGGGGSGGGGSEVHLVESGGGVVRPGGSLRLSCAASGFTFGDYGMSWVRQAPGKGLEWVSGINWNGGRTGYADSVKGRFTISRDNAKNSLYLQMNSLRAEDTALYYCARARGSGSYFGYMDVWGKGTTVTVSS
notes: also called C5 scFv; C5 CAR
B12: the binding result is listed as “binds”.

B13: anti-CD123 scFv-C14 (scFv)
scFv: DIRMTQSPSSLSASVGDRVTITCQASQDITNYLNWYHQKPGKAPKLLIYDASNLETGVPSRFSGGGSGTDFTFTISSLQSEDIGTYYCQQYDDLPLTFGGGTKVEIKGGGGSGGGGSGGGGSQVQLQESGPGLVKPSETLSLTCTVSGGSISSSSHYWGWIRQPPGKGLEWIGSIYYSGSTYYNPSLKSRVTISVDTSKNQFSLKLSSVTAADTAVYYCARRVWVWPTYGMDVWGQGTTVTVSS
notes: also called C14 scFv
Consider B13, for which the binding result is given as “binds”.

B14: anti-CD123 scFv-C1 (scFv)
scFv: QSALTQPASVSGSPGQSITISCTGTSSDIGAYNYVSWYQQHPGKAPKLIIYDVSHRPSGVSNRFSGSKSGNTASLTISGLQSEDEADYYCSSDTNNNTLVFGVGTKLTVLGGGGSGGGGSGGGGSEVHLVESGGGVVQPGRSLRLSCAASGFTFSSYGMHWVRQAPGKGLEWVAVIWYDGSNKYYADSVKGRFTISRDNSKNTLYLQMNSLRAEDTAVYYCARDRDGFFLPMYYFDYWGQGTLVTVSS
notes: also called C1 scFv
Take B14: the binding result is on record as “binds”.

B15: anti-CD123 scFv-C9 (scFv)
scFv: QSVLTQPPSASGTPGQRVTISCSGSNSNIENNYVYWYQHLPGTAPKRLIYQNNQRPSGVPDRFSGSKSGTSASLAISGLRSEDEADYYCSAWDDSLSAWVFGGGTELTVLGGGGSGGGGSGGGGSEVHLVESGGGLVQPGRSLRLSCTASGFTFGDYAMNWVRQAPGKGLEWVGFIRSKASGGTTDYAASVKGRFTISRDDSKSIAYLQMNSLKTEDTAVYYCTRALRGYSYGLFDYWGQGTLVTVSS
notes: also called C9 scFv
Regarding B15, the binding result is “binds”.

B16: anti-CD123 scFv-C18 (scFv)
scFv: QSALTQPASVSGSPGQSITISCTGTSSDVGGYNYVSWYQQHPGKAPKLMIYDVSNRPSGVSNRFSGSKSGNTASLTISGLQAEDEADYYCSSYTSSSTLFVFGTGTELTVLGGGGSGGGGSGGGGSQVQLQESGPGLVKPSQTLSLTCTVSGGSISSGDYYWSWIRQSPGKGLEWIGYIHSTGTTYYNPSLKSRLTISLDTSKNQFSLKLNSVTAADTAVYYCARGGVGTIFNYWGQGTLVTVSS
notes: also called C18 scFv
Consider B16, for which the binding result is recorded as “binds”.

B17: anti-CD123 scFv-C21 (scFv)
scFv: QSVLTQPPSASGTPGQRVTISCSGSSSNVGGNPVYWYRQVPTAAPKLLVYGHNQRPPRDPDRFSGSKSGTSASLAISGLRSEDEADYYCAAWDDSLSGWVFGGGTELTVLGGGGSGGGGSGGGGSEVQLVESGGGLVQPGRSLRLSCAASGFTFDDYAMHWVRQAPGKGLEWVSGISWNSGSIGYADSVKGRFTISRDNAKNSLYLQMNSLRAEDTALYYCAKGRYVDIVATINDAFDIWGQGTMVTVSS
notes: also called C21 scFv
With B17, the binding result was “binds”.

B18: anti-CD123 scFv-C13 (scFv)
scFv: DVVMTQTPLSLPVTLGQPASISCRSSQGLVFSDGVTYLNWFQQRPGQSPRRLIYKVSNRDSGVPDRFSGSGSGTDFTLKISRVEAEDVGIYYCMQGTHWPHTFGQGTKLEIKGGGGSGGGGSGGGGSEVQLVESGGGLVKPGGSLRLSCAASGFTFSSYSMNWVRQAPGKGLEWVAFISHDASKKFYADSVKGRFTLSRDNSKNTLYLEMNSLGAEDTALYYCGRDRNWGFSDFWGQGTLVTVSS
notes: also called C13 scFv
As for B18, the binding result is listed as “binds”.

B19: anti-CD123 scFv-C6 (scFv)
scFv: SYELTQPPSVSVSPGQTARIPCSGADLGDQYVSWYQHQPGQSPLLVIYEDDKRPSGIPERFSGSNSGNTATLTISGTQAMDEADYYCQAWDGNAAIFGGGTKLTVLGGGGSGGGGSGGGGSQVQLVQSGGGSVQPGGSLRLSCAASGFTFTRYSMNWVRQAPGKGLEWVSYISSSSSTIYYADSVKGRFTISRDNAKNSLYLQMNSLRDEDTAVYYCARDGYGGNSDYYGMDVWGQGTTVTVSS
notes: also called C6 scFv
With B19, the binding result is given as “binds”.
